pKd: −log10 of the molar value.

This experiment concerns the target biotinylated human neonatal Fc receptor (FcRn) (human) (UniProt P55899). Put plainly: BLI.
The term pKd denotes the Kd on a negative log10 scale, so that one unit is a factor of ten. The substance “AlbuCORE_1 scaffold (split human serum albumin, split site 339-340) (complex)” had a pKd of 6.72.
For “AlbuCORE_2 scaffold (split human serum albumin, split site 300-301) (complex)”, the negative logarithm of the Kd (pKd) was 6.24.
As for “AlbuCORE_3 scaffold (split human serum albumin, split site 364-365) (complex)”, the figure is 6.12; as for “AlbuCORE_4 scaffold (split human serum albumin, split site 441-442) (complex)”, 6.01; as for “AlbuCORE_6 scaffold (split human serum albumin, deletion of residue 84) (complex)”, 5.80.
As for “AlbuCORE_7 scaffold (split human serum albumin, split site 171-172) (complex)”, the figure is 5.78; as for “AlbuCORE_9 scaffold (split human serum albumin, split site 281-282) (complex)”, 5.90.

The record behind these values is publication PMC7531512.
